Measurements: article PMC8679783 (2021)

Target: RDO24_mFab2 (mouse, UniProt P01863 = IgG part)
Assay: SPR

koff: 0.000335 s⁻¹
B1: recombinant human MET ECD-Fc (Recombinant Human HGFR/c-MET Fc Chimera His-tag Protein) (Fc fusion)
chain: ECKEALAKSEMNVNMKYQLPNFTAETPIQNVILHEHHIFLGATNYIYVLNEEDLQKVAEYKTGPVLEHPDCFPCQDCSSKANLSGGVWKDNINMALVVDTYYDDQLISCGSVNRGTCQRHVFPHNHTADIQSEVHCIFSPQIEEPSQCPDCVVSALGAKVLSSVKDRFINFFVGNTINSSYFPDHPLHSISVRRLKETKDGFMFLTDQSYIDVLPEFRDSYPIKYVHAFESNNFIYFLTVQRETLDAQTFHTRIIRFCSINSGLHSYMEMPLECILTEKRKKRSTKKEVFNILQAAYVSKPGAQLARQIGASLNDDILFGVFAQSKPDSAEPMDRSAMCAFPIKYVNDFFNKIVNKNNVRCLQHFYGPNHEHCFNRTLLRNSSGCEARRDEYRTEFTTALQRVDLFMGQFSEVLLTSISTFIKGDLTIANLGTSEGRFMQVVVSRSGPSTPHVNFLLDSHPVSPEVIVEHTLNQNGYTLVITGKKITKIPLNGLGCRHFQSCSQCLSAPPFVQCGWCHDKCVRSEECLSGTWTQQICLPAIYKVFPNSAPLEGGTRLTICGWDFGFRRNNKFDLKKTRVLLGNESCTLTLSESTMNTLKCTVGPAMNKHFNMSIIISNGHGTTQYSTFSYVDPVITSISPKYGPMAGGTLLTLTGNYLNSGNSRHISIGGKTCTLKSVSNSILECYTPAQTISTEFAVKLKIDLANRETSIFSYREDPIVYEIHPTKSFISGGSTITGVGKNLNSVSVPRMVINVHEAGRNFTVACQHRSNSEIICCTTPSLQQLNLQLPLKTKAFFMLDGILSKYFDLIYVHNPVFKPFEKPVMISMGNENVLEIKGNDIDPEAVKGEVLKVGNKSCENIHLHSEAVLCTVPNDLLKLNSELNIEWKQAISSTVLGKVIVQPDQNFT
